Blank lines part the entries; values can stand above or below the binder they belong to.
Molecular target: T1, human recombinant HER3 (coated on ELISA plate) (human, UniProt P21860 20-643)
T1 construct: also called 인간 재조합 HER3
Experiment: ELISA; plate coated with human recombinant HER3; serial dilutions 0-100 μg/ml; goat anti-human IgG F(ab')2-HRP; absorbance at 450 nm

T1 sequence (P21860 20-643 limits assumed): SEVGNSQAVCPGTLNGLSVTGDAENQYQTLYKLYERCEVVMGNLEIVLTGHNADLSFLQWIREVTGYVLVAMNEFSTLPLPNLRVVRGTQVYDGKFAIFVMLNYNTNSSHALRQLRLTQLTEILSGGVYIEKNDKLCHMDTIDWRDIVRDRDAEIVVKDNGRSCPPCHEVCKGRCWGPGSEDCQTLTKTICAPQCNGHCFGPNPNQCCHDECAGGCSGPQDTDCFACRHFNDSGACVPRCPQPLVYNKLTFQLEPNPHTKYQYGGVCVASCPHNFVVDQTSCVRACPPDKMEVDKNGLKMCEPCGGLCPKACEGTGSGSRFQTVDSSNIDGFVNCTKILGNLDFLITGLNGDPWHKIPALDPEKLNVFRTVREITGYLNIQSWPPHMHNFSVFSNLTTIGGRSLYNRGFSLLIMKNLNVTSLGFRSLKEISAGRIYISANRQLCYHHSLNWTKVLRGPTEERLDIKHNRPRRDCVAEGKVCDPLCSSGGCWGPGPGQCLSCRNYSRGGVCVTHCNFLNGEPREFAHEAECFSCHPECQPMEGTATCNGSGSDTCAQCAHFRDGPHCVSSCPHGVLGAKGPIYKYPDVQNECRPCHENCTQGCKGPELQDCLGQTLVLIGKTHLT

- EC50: 1.7 ng/mL
B1: 225Ac-HER3-ARC (Ac225-labelled, DOTA-conjugated anti-HER3 monoclonal antibody, heavy chain SEQ ID NO: 77 and light chain SEQ ID NO: 78) (antibody, V domains shown)
VH: QVQLVESGGGLVKPGGSLRLSCAASGFTFSDYAMSWIRQAPGKGLEWVSTISDGGTYTYYPDSVKGRFTISRDNAKNSLYLQMNSLRAEDTAVYYCAREWGDYDGFDYWGQGTLVTVSS
VL: DIQMTQSPSSLSASVGDRVTITCRASQEISGYLSWYQQKPGKAPKRLIYAASTLDSGVPSRFSGSGSGTEFTLTISSLQPEDFATYYCLQYDSYPYTFGQGTKLEIKR
modifications: DOTA chelator conjugated with p-SCN-Bn-DOTA and chelating actinium-225; sites and chain not stated
notes: also called Ac225 표지된 DOTA-접합된 항-HER3 모노클로날 항체

- EC50: 2.2 ng/mL
B2: anti-HER3 IgG monoclonal antibody consisting of heavy chain SEQ ID NO: 77 and light chain SEQ ID NO: 78 (unmodified) (antibody, V domains shown)
VH: B1 VH
VL: B1 VL
notes: It was detected with goat anti-human IgG F(ab')2-HRP; also called 항-HER3; 비변형된 항-HER3 mAb
